Where “and” joins values, the source holds several entries; their conditions need not be identical. Identical values can stand only once.

This note sets out measurements from publication PMC7970865.

The target of experiment [1] is nearly full-length recombinant FL-CSP (Plasmodium falciparum) (UniProt Q7K740). Description: ELISA. For orientation: In an ELISA, binding on a coated surface is turned into a signal by an enzyme label.
Experiment [2] shares this target. Description: BLI; Octet RED384; FL-CSP amine-coupled to AR2G biosensors, bivalent mAb in solution, 1x kinetics buffer, 25 °C; 1:1 Langmuir model; mean of quadruplicate measurements. (In general: BLI is a label-free optical method that tracks binding on a fibre tip over time.)
Experiment [3] concerns the target nearly full-length recombinant P. falciparum circumsporozoite protein (FL-CSP) (Plasmodium falciparum) (UniProt Q7K740). Description: BLI.
The target in experiment [4] is nearly full-length recombinant FL-CSP (Plasmodium falciparum) (UniProt Q7K740). The experiment in a line: BLI; Octet RED96; biotinylated FL-CSP or biotinylated NANPx6 on streptavidin biosensors, Fab in solution, kinetics buffer; global fit to 1:1 Langmuir model.

In the case of mAb CIS43 (antibody), the ng/ml mAb needed for OD = 1 in experiment [1] is under 6 ng/mL. Besides, in experiment [2], the Kd was 0.46 nM, the koff is 0.000692 s⁻¹ and the on-rate (kon) stood at 1.5e+06 M⁻¹ s⁻¹.
On to “mAb CIS43 (intact human IgG1) (antibody)”, for which, in experiment [3], the kon was 1.4e+06 1/(M s) (2×) and 1.7e+06 1/(M s) and 1.6e+06 1/(M s).
Regarding Fab CIS43, in experiment [4], the Kd amounted to 2 nM, the koff stood at 4.8e-05 s⁻¹ and the kon stood at 28000 M⁻¹ s⁻¹.

What is called koff is a measure of how fast the partners let go of each other. What is called kon is the rate constant with which the complex forms.
